{"source": "patent US8148141", "binders": {"B1": {"name": "Lys(Rf)-Tyr-Gln-Ser-Trp-Arg-Tyr-Ser-Gln-Ala-Cys-NH2 (peptide)", "peptide": "K(carboxyfluorescein)YQSWRYSQAC-NH2"}}, "target": "amylase", "experiment": "fluorescence of immobilized carboxyfluorescein-labeled peptide on chip, ex 490 nm / em 520 nm, 1.0 uM amylase, 25 C, 5 min", "note": "Ends that are not written are not given here. carboxyfluorescein = carboxyfluorescein (fluorescent group)"}
{"binder": "B1", "values": [{"measurement": "increase of the fluorescence intensity (fold)", "result": 10, "unit": "times"}]}
